In FireProtDB (doi:10.1021/bi5005975):

B1: H56V, Q9NAV8 (parent)
chain: MGFKQDIATIRGDLRTYAQDIFLAFLNKYPDERRYFKNYVGKSDQELKSMAKFGDHTEKVFNLMMEVADRATDCVPLASDANTLVQMKQHSSLTTGNFEKLFVALVEYMRASGQSFDSQSWDRFGKNLVSALSSAGMK

Variants of: B1
Conditions: Amphitrite ornata; pH 7; 20 °C; Urea; UV?visible spectrophotometer; potassium phosphate 100 mM; transition: 2; reversible: yes; structure 1EW6; whole UniProt chain shown

Variant	ddG of mutation (higher = less stable) [kcal/mol]	denaturant midpoint (higher = more stable) [M]	unfolding free energy [kcal/mol]
MGFKQDIATIRGDLRTYAQDIFLAFLNKYPDERRYFKNYVGKSDQELKSMAKFGDVTEKVFNLMMEVADRATDCVPLASDANTLVQMKQHSSLTTGNFEKLFVALVEYMRASGQSFDSQSWDRFGKNLVSALSSAGMK [H56V]	-5.1	5.35	7.52

Same assay, conditions: Amphitrite ornata; pH 7; Thermal; UV?visible spectrophotometer; potassium phosphate 100 mM; transition: 2; reversible: yes; structure 1EW6; whole UniProt chain shown

Variant	Tm [°C]	change of melting temperature, mutant - wild type (higher = more stable) [°C]
MGFKQDIATIRGDLRTYAQDIFLAFLNKYPDERRYFKNYVGKSDQELKSMAKFGDVTEKVFNLMMEVADRATDCVPLASDANTLVQMKQHSSLTTGNFEKLFVALVEYMRASGQSFDSQSWDRFGKNLVSALSSAGMK [H56V]	61	7
